The Immune Epitope Database (IEDB)
One block for each sequence: values may come before it.

Columns and labels:
HLA-B*48:01 = test: IEDB peptide-MHC binding, purified MHC/competitive/fluorescence; filed as Kd, often an IC50 or EC50 that approximates it; ≥ and ≤ were set here for values at or beyond the usual limits of such assays; conditions: source organism: Burkholderia mallei SAVP1
HLA-B*15:42 = test: as above
HLA-B*83:01 = test: as above
HLA-A*32:07 = test: as above
HLA-B*40:13 = test: as above
HLA-B*45:06 = test: as above
HLA-B*27:20 = test: as above
HLA-C*06:02 [1] = test: IEDB peptide-MHC binding, purified MHC/direct/fluorescence; filed as Kd, often an IC50 or EC50 that approximates it; ≥ and ≤ were set here for values at or beyond the usual limits of such assays
HLA-C*04:01 [2] = test: IEDB peptide-MHC binding, purified MHC/competitive/fluorescence; filed as Kd, often an IC50 or EC50 that approximates it; ≥ and ≤ were set here for values at or beyond the usual limits of such assays
HLA-A*03:01 [3] = test: as above; conditions: source organism: Cryptosporidium parvum Iowa II
HLA-B*40:01 = test: as above; conditions: source organism: Escherichia coli B7A
HLA-B*39:01 = test: as above
HLA-A*24:03 = test: as above
HLA-C*04:01 [4] = test: IEDB peptide-MHC binding, purified MHC/direct/fluorescence; filed as Kd, often an IC50 or EC50 that approximates it; ≥ and ≤ were set here for values at or beyond the usual limits of such assays
HLA-C*12:03 = test: as above; conditions: source organism: Bacillus anthracis str. A0488
HLA-C*14:02 = test: IEDB peptide-MHC binding, purified MHC/competitive/fluorescence; filed as Kd, often an IC50 or EC50 that approximates it; ≥ and ≤ were set here for values at or beyond the usual limits of such assays
HLA-B*15:01 = test: as above
HLA-B*35:01 = test: as above; conditions: source organism: Yersinia pestis Nepal516
HLA-A*68:23 = test: as above
HLA-A*32:15 = test: as above
HLA-C*15:02 = test: IEDB peptide-MHC binding, purified MHC/direct/fluorescence; filed as Kd, often an IC50 or EC50 that approximates it; ≥ and ≤ were set here for values at or beyond the usual limits of such assays
HLA-A*26:01 = test: IEDB peptide-MHC binding, purified MHC/competitive/fluorescence; filed as Kd, often an IC50 or EC50 that approximates it; ≥ and ≤ were set here for values at or beyond the usual limits of such assays; conditions: source organism: Orthohantavirus sinnombreense
HLA-C*06:02 [5] = test: as above; conditions: source organism: Orthohantavirus sinnombreense
HLA-B*27:03 = test: as above; conditions: source organism: Orthohantavirus sinnombreense
HLA-B*18:01 = test: as above; conditions: source organism: Orthohantavirus sinnombreense
HLA-B*51:01 = test: as above; conditions: source organism: Orthohantavirus sinnombreense
HLA-A*03:19 = test: as above; conditions: source organism: Orthohantavirus sinnombreense
HLA-A*03:01 [6] = test: IEDB peptide-MHC binding, purified MHC/direct/fluorescence; filed as Kd, often an IC50 or EC50 that approximates it; ≥ and ≤ were set here for values at or beyond the usual limits of such assays; conditions: source organism: Limestone Canyon virus
HLA-A*02:01 [7] = test: as above
HLA-C*05:01 = test: as above; conditions: source organism: Orthohantavirus sinnombreense
HLA-A*02:06 = test: IEDB peptide-MHC binding, purified MHC/competitive/fluorescence; filed as Kd, often an IC50 or EC50 that approximates it; ≥ and ≤ were set here for values at or beyond the usual limits of such assays; conditions: source organism: Haemophilus influenzae
HLA-A*02:11 = test: as above; conditions: source organism: Haemophilus influenzae
HLA-A*01:01 = test: IEDB peptide-MHC binding, purified MHC/direct/fluorescence; filed as Kd, often an IC50 or EC50 that approximates it; ≥ and ≤ were set here for values at or beyond the usual limits of such assays; conditions: source organism: Haemophilus influenzae
HLA-A*69:01 = test: as above; conditions: source organism: Haemophilus influenzae
HLA-B*27:05 = test: IEDB peptide-MHC binding, purified MHC/competitive/fluorescence; filed as Kd, often an IC50 or EC50 that approximates it; ≥ and ≤ were set here for values at or beyond the usual limits of such assays; conditions: source organism: Salmonella enterica subsp. enterica serovar Typhi
HLA-A*02:01 [8] = test: as above; conditions: source organism: Salmonella enterica subsp. enterica serovar Typhi
HLA-A*24:02 = test: as above
HLA-C*07:02 = test: IEDB peptide-MHC binding, purified MHC/direct/fluorescence; filed as Kd, often an IC50 or EC50 that approximates it; ≥ and ≤ were set here for values at or beyond the usual limits of such assays; conditions: source organism: Salmonella enterica subsp. enterica serovar Typhi str. CT18
[9] = source organism: Burkholderia mallei SAVP1
[10] = source organism: Cryptosporidium parvum Iowa II
[11] = source organism: Escherichia coli str. K-12 substr. MG1655
[12] = source organism: Bacillus anthracis str. A0488
[13] = source organism: Yersinia pestis Nepal516
[14] = source organism: Orthohantavirus sinnombreense
[15] = source organism: Salmonella enterica subsp. enterica serovar Typhi
[16] = source organism: Encephalitozoon cuniculi GB-M1

Sequence: RQYERYTAL
Kd (HLA-B*48:01): 55.2 nM | Kd (HLA-B*15:42; [9]): 733 nM | Kd (HLA-B*83:01; [9]): ≥ 5000 nM | Kd (HLA-A*32:07; [9]): 7.5 nM | Kd (HLA-B*40:13; [9]): 37.7 nM | Kd (HLA-B*45:06; [9]): ≥ 5000 nM | Kd (HLA-B*27:20; [9]): 0.3 nM | Kd (HLA-C*06:02 [1]; [9]): 1810 nM

Sequence: VGYYTFHPK
Kd (HLA-C*04:01 [2]; [10]): ≥ 5000 nM | Kd (HLA-A*03:01 [3]): 0.9 nM | Kd (HLA-B*15:42; [10]): ≥ 5000 nM | Kd (HLA-B*83:01; [10]): ≥ 5000 nM | Kd (HLA-B*45:06; [10]): ≥ 5000 nM

Kd (HLA-B*40:01): 1.7 nM
Sequence: GEHVPEIIL

Sequence: RYDKSAADL
Kd (HLA-B*39:01; [11]): ≥ 20000 nM | Kd (HLA-A*24:03; [11]): 474 nM | Kd (HLA-C*04:01 [4]; [11]): ≥ 20000 nM

Sequence: YFIFVRAIL
Kd (HLA-A*24:03; [12]): 36.7 nM | Kd (HLA-C*04:01 [4]; [12]): ≥ 20000 nM | Kd (HLA-C*12:03): 436 nM

Sequence: MMMSTAVAF
Kd (HLA-C*04:01 [2]; [13]): 3230 nM | Kd (HLA-B*15:42; [13]): ≥ 5000 nM | Kd (HLA-C*14:02; [13]): 1.1 nM | Kd (HLA-B*15:01; [13]): 541 nM | Kd (HLA-B*35:01): 0.6 nM | Kd (HLA-B*83:01; [13]): ≥ 5000 nM | Kd (HLA-A*32:07; [13]): 94.5 nM | Kd (HLA-A*68:23; [13]): 650 nM | Kd (HLA-B*40:13; [13]): 365 nM | Kd (HLA-B*45:06; [13]): ≥ 5000 nM | Kd (HLA-A*32:15; [13]): 248 nM | Kd (HLA-C*15:02; [13]): ≥ 20000 nM | Kd (HLA-C*06:02 [1]; [13]): ≥ 20000 nM

Sequence: YTFTSLFSL
Kd (HLA-A*26:01): ≥ 20000 nM | Kd (HLA-B*15:42; [14]): ≥ 5000 nM | Kd (HLA-C*14:02; [14]): 5.8 nM | Kd (HLA-B*83:01; [14]): ≥ 5000 nM | Kd (HLA-C*06:02 [5]): 146 nM | Kd (HLA-A*32:07; [14]): 856 nM | Kd (HLA-B*27:03): ≥ 20000 nM | Kd (HLA-B*18:01): ≥ 20000 nM | Kd (HLA-A*68:23; [14]): 14.2 nM | Kd (HLA-B*45:06; [14]): ≥ 5000 nM | Kd (HLA-B*51:01): ≥ 20000 nM | Kd (HLA-A*32:15; [14]): 82.2 nM | Kd (HLA-A*03:19): 3070 nM | Kd (HLA-A*03:01 [6]): ≥ 20000 nM | Kd (HLA-A*02:01 [7]; source organism: Itapua hantavirus): 1.5 nM | Kd (HLA-C*05:01): ≥ 20000 nM

Kd (HLA-A*02:06): ≤ 0.1 nM | Kd (HLA-A*02:11): ≤ 0.1 nM | Kd (HLA-A*01:01): 625 nM | Kd (HLA-A*02:01 [7]; source organism: Haemophilus influenzae): 135 nM | Kd (HLA-A*69:01): 639 nM
Sequence: YINMAWNLV

Sequence: KQLELFWVI
Kd (HLA-B*39:01; [15]): 6 nM | Kd (HLA-B*15:42; [15]): 2470 nM | Kd (HLA-B*27:05): 66.1 nM | Kd (HLA-B*15:01; [15]): 497 nM | Kd (HLA-B*83:01; [15]): ≥ 5000 nM | Kd (HLA-A*02:01 [8]): ≤ 1 nM | Kd (HLA-A*32:07; [15]): 1.1 nM | Kd (HLA-B*40:13; [15]): 4.2 nM | Kd (HLA-B*45:06; [15]): 833 nM | Kd (HLA-B*27:20; [15]): 1.3 nM | Kd (HLA-A*24:02; [15]): 0.2 nM | Kd (HLA-C*07:02): ≥ 20000 nM

Kd (HLA-A*24:02; [16]): 86.6 nM | Kd (HLA-C*15:02; [16]): 3660 nM
Sequence: TTLSIYFLL
